Where “and” joins values, the source holds several entries; their conditions need not be identical. Equal values may be shown once.
B1: semenogelin II: isolated from human seminal fluid (protein, UniProt Q02383 24-582, looked up)
Semenogelin-2: QKGGSKGQLPSGSSQFPHGQKGQHYFGQKDQQHTKSKGSFSIQHTYHVDINDHDWTRKSQQYDLNALHKATKSKQHLGGSQQLLNYKQEGRDHDKSKGHFHMIVIHHKGGQAHHGTQNPSQDQGNSPSGKGLSSQCSNTEKRLWVHGLSKEQASASGAQKGRTQGGSQSSYVLQTEELVVNKQQRETKNSHQNKGHYQNVVDVREEHSSKLQTSLHPAHQDRLQHGPKDIFTTQDELLVYNKNQHQTKNLSQDQEHGRKAHKISYPSSRTEERQLHHGEKSVQKDVSKGSISIQTEEKIHGKSQNQVTIHSQDQEHGHKENKISYQSSSTEERHLNCGEKGIQKGVSKGSISIQTEEQIHGKSQNQVRIPSQAQEYGHKENKISYQSSSTEERRLNSGEKDVQKGVSKGSISIQTEEKIHGKSQNQVTIPSQDQEHGHKENKMSYQSSSTEERRLNYGGKSTQKDVSQSSISFQIEKLVEGKSQIQTPNPNQDQWSGQNAKGKSGQSADSKQDLLSHEQKGRYKQESSESHNIVITEHEVAQDDHLTQQYNEDRNPIST
B2: semenogelin I: isolated from human seminal fluid (protein, UniProt P04279 24-462, looked up)
Semenogelin-1: QKGGSKGRLPSEFSQFPHGQKGQHYSGQKGKQQTESKGSFSIQYTYHVDANDHDQSRKSQQYDLNALHKTTKSQRHLGGSQQLLHNKQEGRDHDKSKGHFHRVVIHHKGGKAHRGTQNPSQDQGNSPSGKGISSQYSNTEERLWVHGLSKEQTSVSGAQKGRKQGGSQSSYVLQTEELVANKQQRETKNSHQNKGHYQNVVEVREEHSSKVQTSLCPAHQDKLQHGSKDIFSTQDELLVYNKNQHQTKNLNQDQQHGRKANKISYQSSSTEERRLHYGENGVQKDVSQSSIYSQTEEKAQGKSQKQITIPSQEQEHSQKANKISYQSSSTEERRLHYGENGVQKDVSQRSIYSQTEKLVAGKSQIQAPNPKQEPWHGENAKGESGQSTNREQDLLSHEQKGRHQHGSHGGLDIVIIEQEDDSDRHLAQHLNNDRNPLFT
B3: nidogen-1: recombinant human nidogen-1, linker protein in the basement membrane (protein, UniProt P14543 29-1247, looked up)
Nidogen-1: LSRQELFPFGPGQGDLELEDGDDFVSPALELSGALRFYDRSDIDAVYVTTNGIIATSEPPAKESHPGLFPPTFGAVAPFLADLDTTDGLGKVYYREDLSPSITQRAAECVHRGFPEISFQPSSAVVVTWESVAPYQGPSRDPDQKGKRNTFQAVLASSDSSSYAIFLYPEDGLQFHTTFSKKENNQVPAVVAFSQGSVGFLWKSNGAYNIFANDRESVENLAKSSNSGQQGVWVFEIGSPATTNGVVPADVILGTEDGAEYDDEDEDYDLATTRLGLEDVGTTPFSYKALRRGGADTYSVPSVLSPRRAATERPLGPPTERTRSFQLAVETFHQQHPQVIDVDEVEETGVVFSYNTDSRQTCANNRHQCSVHAECRDYATGFCCSCVAGYTGNGRQCVAEGSPQRVNGKVKGRIFVGSSQVPIVFENTDLHSYVVMNHGRSYTAISTIPETVGYSLLPLAPVGGIIGWMFAVEQDGFKNGFSITGGEFTRQAEVTFVGHPGNLVIKQRFSGIDEHGHLTIDTELEGRVPQIPFGSSVHIEPYTELYHYSTSVITSSSTREYTVTEPERDGASPSRIYTYQWRQTITFQECVHDDSRPALPSTQQLSVDSVFVLYNQEEKILRYALSNSIGPVREGSPDALQNPCYIGTHGCDTNAACRPGPRTQFTCECSIGFRGDGRTCYDIDECSEQPSVCGSHTICNNHPGTFRCECVEGYQFSDEGTCVAVVDQRPINYCETGLHNCDIPQRAQCIYTGGSSYTCSCLPGFSGDGQACQDVDECQPSRCHPDAFCYNTPGSFTCQCKPGYQGDGFRCVPGEVEKTRCQHEREHILGAAGATDPQRPIPPGLFVPECDAHGHYAPTQCHGSTGYCWCVDRDGREVEGTRTRPGMTPPCLSTVAPPIHQGPAVPTAVIPLPPGTHLLFAQTGKIERLPLEGNTMRKTEAKAFLHVPAKVIIGLAFDCVDKMVYWTDITEPSIGRASLHGGEPTTIIRQDLGSPEGIAVDHLGRNIFWTDSNLDRIEVAKLDGTQRRVLFETDLVNPRGIVTDSVRGNLYWTDWNRDNPKIETSYMDGTNRRILVQDDLGLPNGLTFDAFSSQLCWVDAGTNRAECLNPSQPSRRKALEGLQYPFAVTSYGKNLYFTDWKMNSVVALDLAISKETDAFQPHKQTRLYGITTALSQCPQGHNYCSVNNGGCTHLCLATPGSRTCRCPDNTLGVDCIEQK

What was measured:
PSA [1] = biological target: T1, PSA (Homo sapiens, UniProt P07288); assay: Proteolytic cleavage of protein substrates by PSA (SDS-PAGE, silver staining); format: biochemical; settings: 37°C; for time for degradation of half of the intact protein: substrate 1 µM (0.5 µM semenogelin I)
T1 construct: from tissue; host or cells: pooled human seminal fluid
T1 sequence (P07288 25-261): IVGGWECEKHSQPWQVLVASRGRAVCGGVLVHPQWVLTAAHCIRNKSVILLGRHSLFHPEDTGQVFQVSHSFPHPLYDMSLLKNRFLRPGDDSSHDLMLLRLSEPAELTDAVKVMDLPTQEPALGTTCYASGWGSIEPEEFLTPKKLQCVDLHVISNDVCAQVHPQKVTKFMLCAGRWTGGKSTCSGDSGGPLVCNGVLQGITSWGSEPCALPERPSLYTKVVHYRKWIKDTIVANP
Experimental: The major form of active PSA (isoform PSA-B) was purified from pooled human seminal fluid by immunoaffinity chromatography followed by anion exchange chromatography. Semenogelins I and II were isolated from human seminal fluid as previously described, but instead of alkylating the proteins, the reducing agent 30 mM dithiothreitol (Sigma-Aldrich, St. Louis, MO) was included in all buffers during purification. Semenogelins were stored in the purification buffer containing 2 M urea and 5 mM EDTA at −70°C. Prior to cleavage by PSA, the buffer was exchanged to 50 mM Tris, pH 7.7, containing 0.15 M NaCl (TBS), with Amicon Ultra centrifugal filter units (MW cut-off 30 kDa) (Millipore, Cork, Ireland) at 4°C, and protein concentration was determined by measuring absorbance at 280 nm.
Protein LoBind tubes (Eppendorf AG, Hamburg, Germany) were used in all protein degradation experiments.
PSA (0.2–1 µM) and 0.5–1 µM of each protein substrate were incubated at 37°C for 22 h in TBS buffer. During the incubation, samples of 15 µl were taken at different time points: 0 min, 10 min, 30 min, 2 h, 5 h and 22 h, and stored at −20°C before further analysis.
Immediately after each incubation, reducing 4× SDS-loading buffer (8% SDS), containing 1 M β-mercaptoethanol or 75 mM dithiothreitol, was added to each sample and proteins were denatured at 70°C for 10 min. The samples were immediately analyzed by SDS-PAGE or frozen at −20°C. Frozen samples were heated again at 70°C before loading on the gel. The cleavage of protein substrates by PSA, i.e., the disappearance of the full-length protein bands, was quantified from scanned images of silver stained gels by the measurement of relative optical densities of the protein bands using ImageJ [40].
Proteins were separated using the XCell SureLock Mini Cell system and pre-cast NuPAGE Novex 4–12% Bis-Tris Gels (both from Invitrogen, Carlsbad, CA). MES running buffer, pH 7.3, containing 50 mM MES [2-(N-morpholino)ethanesulfonic acid] (Sigma-Aldrich), 50 mM Tris base, 3.5 mM SDS and 1 mM EDTA was used. Dithiothreitol (0.5 mM) (Sigma-Aldrich) was added to the cathode buffer chamber.
Proteins were visualized either by silver staining or Western blotting. For silver staining (modified from), the gel was fixed for one hour at room temperature in 30% ethanol, containing 0.5% acetic acid, and rinsed with 20% ethanol and water for 10 min each. Then the gel was sensitized with 0.02% sodium thiosulfate for 1 min and rinsed twice with water. After 30 min incubation in 0.2% AgNO3, the gel was rinsed briefly with water and proteins were detected with development solution, containing 700 µl/l of 37% formaldehyde, 0.001% sodium thiosulfate and 3% anhydrous Na2CO3. The development reaction was finished with stop solution containing 5% Tris and 2.5% acetic acid.

PSA [2] = biological target: T1, PSA; settings: more than half of semenogelin I degraded; ref Malm and coworkers (2000), [16], [63]; cited from earlier work
Experimental: In the present study, we compared the proteolytic activity of PSA towards several protein substrates. As shown previously, semenogelins are cleaved very effectively by PSA. Malm and coworkers (2000) reported that more than half of semenogelin I is degraded after 15 min incubation with PSA [16], [63] and we observed this after 11 min incubation. Proteolysis of the other protein substrates, i.e., fibronectin, IGFBP-3, galectin-3 and nidogen-1, took much longer, reflecting the high substrate specificity of PSA for semenogelins. […] However, the detailed mechanism of the antiangiogenic activity of PSA remains unclear. Some of the proteolytically produced fragments of extracellular matrix (ECM) proteins act as endogenous angiogenesis inhibitors and may mediate the antiangiogenic effect of PSA. […] Although plasminogen ...

HUVECs = assay: HUVEC tube formation assay on Matrigel; format: cell-based, human; settings: two separate experiments
Experimental: Human umbilical vein endothelial cells (HUVECs) were isolated from umbilical cord veins and grown in Endothelial Cell Growth Medium (Promocell, Heidelberg, Germany) with 2% Ultroser G BioSepra serum substitute (PALL BioSepra, Cergy, France) and growth factors EGF and bFGF. For tube formation, HUVECs were grown on top of Matrigel (BD Biosciences) as described previously, [29].
To study the effect of PSA-cleaved protein fragments, 0.08 µM nidogen-1 or 0.4 µM galectin-3 (10 µg/ml each) were first incubated with 1 µM PSA for 24 h at 37°C in PBS (Lonza). Then PSA activity was blocked by one-hour incubation at room temperature with 2 µM monoclonal antibody 5C7 [38]. The mixture containing nidogen-1 or galectin-3 fragments with PSA blocked by antibody or the same amount of intact nidogen-1 or galectin-3 were added together with the cells onto gelled Matrigel and the cells were allowed to form tubular networks for 20 h. Control wells contained either PBS or 1 µM PSA. After overnight incubation, cell culture medium was collected from PBS and PSA control wells for SDS-PAGE and Western blotting. Images of tubular networks (100×magnification) were taken using an Axiovert 200 inverted light microscope connected to an AxioCam digital camera and visualized by AxioVision software (all from Zeiss, Göttingen, Germany).

PSA [3] = biological target: T1, PSA; assay: N-terminal sequencing of nidogen-1 fragments generated by PSA; format: biochemical; settings: recombinant human nidogen-1, 1 µM, 2 µM PSA, 22 h, 37°C; Edman degradation; UniProt P14543 numbering
Experimental: For N-terminal sequencing, 1 µM (10 µg) nidogen-1 was first incubated with 2 µM (5 µg) PSA for 22 h at 37°C. Then the resulting protein fragments were separated by SDS-PAGE and electroblotted onto polyvinylidene-difluoride (PVDF) membrane. After staining with Coomassie Brilliant Blue the protein fragments were directly sequenced by Edman-degradation using the Procise 494A Sequencer (Perkin Elmer Applied Biosystems, Foster City, CA).

[4] = 0.2 µM PSA, TBS, disappearance of full-length band

Row | Molecule | time for degradation of half of the intact protein (PSA [1]; [4]) | incubation time with more than half degraded by PSA (PSA [2]) | time for degradation of 50% of the protein (PSA [1]; 0.2 µM PSA, 1 µM substrate, TBS, disappearance of full-length band) | size of nidogen-1 fragments formed by PSA (PSA [1]; 1 µM PSA, 0.5 µM recombinant human nidogen-1, 20 h) | effect on tube formation, PSA-generated fragments (HUVECs; 10 µg/ml (0.08 µM nidogen-1, 0.4 µM galectin-3) precleaved by 1 µM PSA 24 h, PSA blocked by mAb 5C7, 20 h) | effect on tube formation, full-length protein (HUVECs; 10 µg/ml (0.08 µM nidogen-1, 0.4 µM galectin-3), 20 h, HUVECs on Matrigel) | cleavage site of PSA in nidogen-1 (PSA [3])
1 | B1 | 80 min |  |  |  |  |  | 
2 | B2 | 11 min | 15 min |  |  |  |  | 
3 | B3 |  |  | 22 h | 85 kDa and 55 kDa | did not have any effect on tube formation | did not have any effect on tube formation | GVVF^380 ↓ SYNTD

Reference: PMC4169579, “Proteolytic Activity of Prostate-Specific Antigen (PSA) towards Protein Substrates and Effect of Peptides Stimulating PSA Activity” (PLoS ONE, 2014)
